Test results taken from the RNAGym collection of RNA variant scans (doi:10.1073/pnas.2313332121).

B1: TPR t1 (parent)
chain: GACCAAUCUGCCCUCAGAGCUCGAGAACAUCUUCGGAUGCAGAGGAGGCAGGCUUCGGUGGCGCGAUAGCGCCAACGUCCUCAACCUCCAAUGCAUCCCACCACAUGAUGAUGCCUGAAGAGCCUUGGUUUUUUG

Variants of: B1
Experiment: polymerase ribozyme fitness, log enrichment relative to wild type (log ratio); higher = more active; in vitro selection for triplet polymerase activity
In short: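 Fitness is a logarithmic measure of how a genotype enriched relative to the wild type, with replicate averages weighted by inverse variance. The logarithm uses base 2, and enrichment came from Illumina sequencing of input and output libraries. Those libraries were PCR-built, transcribed mutants of each subunit of a heterodimeric triplet polymerase ribozyme, passed through one triplicate in vitro selection round that included frozen incubation at −7 °C, gel excision of extended constructs and streptavidin-bead capture. Genotypes were kept only if they had ≥10 input reads and ≥1 read per output.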

Going from C79U C89A C115A to C76A C99U G120U, the “polymerase ribozyme fitness (log ratio)” value falls from -0.609 to -5.6.

Going from C79U A118C to C79U C94G A100C G117C, the “polymerase ribozyme fitness (log ratio)” value falls from -2.46 to -6.32.

U78A and U78C are within 0.2 log units of each other in “polymerase ribozyme fitness (log ratio)” value: -0.254 for the first, -0.247 for the second.

Compared with U78G, C73U C94U G113U is lower in “polymerase ribozyme fitness (log ratio)” value: -0.246 for the first, -3.64 for the second.

Going from G77A A121U to C79G C124G U125A, the “polymerase ribozyme fitness (log ratio)” value falls from 1.88 to -4.24.

First: C76U C89G C98U
Second: C76A C123G
The “polymerase ribozyme fitness (log ratio)” value of the first is lower: -4.45 for the first, -0.164 for the second.

First: C80A G113U
Second: C79U G120U
The “polymerase ribozyme fitness (log ratio)” value of the first is lower: -4.78 for the first, 0.0692 for the second.

Compared with U78C U132C, A74C A90C C101G is lower in “polymerase ribozyme fitness (log ratio)” value: -0.13 for the first, -3.22 for the second.

Compared with C76A C79G, C80A U130C is lower in “polymerase ribozyme fitness (log ratio)” value: -0.726 for the first, -2.51 for the second.

First: U81G C89G A121G
Second: C73A U109C
The “polymerase ribozyme fitness (log ratio)” value of the first is lower: -4.14 for the first, -2.34 for the second.

Going from A75G C94A to C73G G113U, the “polymerase ribozyme fitness (log ratio)” value falls from -0.695 to -2.74.

Compared with C80G A121U, A74C A90U is higher in “polymerase ribozyme fitness (log ratio)” value: -3.78 for the first, -0.572 for the second.

First: U78C U81G G120C
Second: U78C G120A
The “polymerase ribozyme fitness (log ratio)” value of the first is lower: -1.18 for the first, 0.768 for the second.

First: A74U G77U C98U C102G
Second: C79A U131C
The “polymerase ribozyme fitness (log ratio)” value of the first is lower: -6.8 for the first, -0.838 for the second.

First: C73A C98A
Second: A74U U116G U133G
The “polymerase ribozyme fitness (log ratio)” value of the first is lower: -4.94 for the first, -2.9 for the second.

Going from G77A A83U A84C C86A C101U G117C to U78G C97U U116C A121U U131A, the “polymerase ribozyme fitness (log ratio)” value rises from -6.46 to 0.0734.

Compared with C79U G93U, U78G C85A G120A is higher in “polymerase ribozyme fitness (log ratio)” value: -1.77 for the first, -0.262 for the second.

First: G77U A91U
Second: C80U U109C
The “polymerase ribozyme fitness (log ratio)” value of the first is higher: -2.18 for the first, -3.85 for the second.

U78C C101A and C76G C85A U132C are within 0.2 log units of each other in “polymerase ribozyme fitness (log ratio)” value: -0.679 for the first, -0.689 for the second.

First: A75U G128A
Second: U81A C88U
The “polymerase ribozyme fitness (log ratio)” value of the first is lower: -1.64 for the first, -0.655 for the second.

Compared with U78G C86U, U81A C86G is lower in “polymerase ribozyme fitness (log ratio)” value: -0.465 for the first, -1.48 for the second.

First: C76A C85A
Second: C73A U81G C88A U112G C115A U125A
The “polymerase ribozyme fitness (log ratio)” value of the first is higher: -0.928 for the first, -5.14 for the second.

Going from C79A G93U to C79A C88U, the “polymerase ribozyme fitness (log ratio)” value rises from -2.82 to -1.33.

Going from C76G U78C G135U to G77C A90G A111G, the “polymerase ribozyme fitness (log ratio)” value rises from -1.36 to -0.0361.

Going from C73U G93C C124U U125C to C80G, the “polymerase ribozyme fitness (log ratio)” value falls from -1.39 to -5.78.

First: C80U
Second: C80A
The “polymerase ribozyme fitness (log ratio)” value of the first is higher: -0.463 for the first, -2.86 for the second.

First: C76G U87G
Second: C76G C101A
The “polymerase ribozyme fitness (log ratio)” value of the first is higher: -0.0658 for the first, -3.2 for the second.

Compared with C76U C97U, C73U G120C is higher in “polymerase ribozyme fitness (log ratio)” value: -0.795 for the first, 1.2 for the second.

Going from C73U U96A A108G C114A to C73G C123U, the “polymerase ribozyme fitness (log ratio)” value rises from -5.25 to 0.00475.

First: U81C
Second: U81A
The “polymerase ribozyme fitness (log ratio)” value of the first is higher: -0.208 for the first, -1.01 for the second.

Compared with U81G, U78C C85G U129C is higher in “polymerase ribozyme fitness (log ratio)” value: -3.8 for the first, -2.13 for the second.

First: C73U C115G U132A
Second: A74G G117U
The “polymerase ribozyme fitness (log ratio)” value of the first is higher: -1.49 for the first, -2.41 for the second.

First: G77A A83C C86U U116A G120C U125A
Second: G77U U92G
The “polymerase ribozyme fitness (log ratio)” value of the first is higher: -1.96 for the first, -2.77 for the second.

Compared with G77A U112G, G77A U112A is higher in “polymerase ribozyme fitness (log ratio)” value: 0.316 for the first, 0.751 for the second.

First: C73U C85G
Second: C73U C85U
The “polymerase ribozyme fitness (log ratio)” value of the first is lower: -2.85 for the first, -0.444 for the second.

First: U78G C97A
Second: U78G C97G
The “polymerase ribozyme fitness (log ratio)” value of the first is higher: -2.84 for the first, -4.29 for the second.

Compared with U78A C94U C115A G127C, C79U G110U G120C G122A is lower in “polymerase ribozyme fitness (log ratio)” value: -1.41 for the first, -4.4 for the second.

C76U and C76G are within 0.2 log units of each other in “polymerase ribozyme fitness (log ratio)” value: -0.164 for the first, -0.207 for the second.

Going from C76A to A75G C88A C104A U112A, the “polymerase ribozyme fitness (log ratio)” value falls from -0.611 to -1.1.

Compared with U78C U87A, U78C U87C is lower in “polymerase ribozyme fitness (log ratio)” value: 1.12 for the first, 0.532 for the second.

Compared with U78C U87G, C80A C82U A83U C101G is lower in “polymerase ribozyme fitness (log ratio)” value: 0.287 for the first, -5.83 for the second.

Going from A74U C104A to U78A A111C, the “polymerase ribozyme fitness (log ratio)” value rises from -1.82 to -0.127.

First: A75G U112A U131A
Second: C80U U131A
The “polymerase ribozyme fitness (log ratio)” value of the first is higher: 1.22 for the first, -0.732 for the second.

Going from U78C U112A G113A G122C U130C to U78C A103G U109A C114A A119C, the “polymerase ribozyme fitness (log ratio)” value falls from -1.11 to -6.28.

Going from U78C U92C U96C U106A to C73G C97U A118U, the “polymerase ribozyme fitness (log ratio)” value rises from -1.75 to -1.07.

First: C79U C94A C102A G120C
Second: C76G G77U U78G U112C
The “polymerase ribozyme fitness (log ratio)” value of the first is lower: -2.46 for the first, 2.21 for the second.

Going from C73U C79G G113U to A74C G120C, the “polymerase ribozyme fitness (log ratio)” value rises from -5.88 to 1.48.

Compared with A74C G120U, C73A C104A U116G C124A is lower in “polymerase ribozyme fitness (log ratio)” value: 0.00369 for the first, -1.19 for the second.

First: U78G C82G C99A U112G G128U
Second: A74C G93A
The “polymerase ribozyme fitness (log ratio)” value of the first is lower: -6.81 for the first, -0.578 for the second.

Compared with C73A G128A, U78C C99A U106C is lower in “polymerase ribozyme fitness (log ratio)” value: -2.12 for the first, -4.95 for the second.

G77A U78C A105C A121C and U78C G110U are within 0.2 log units of each other in “polymerase ribozyme fitness (log ratio)” value: -1.42 for the first, -1.27 for the second.

First: C79G G120A
Second: C80U A103C
The “polymerase ribozyme fitness (log ratio)” value of the first is higher: -0.791 for the first, -6.57 for the second.

U78G C86U U133A and U78C U81C are within 0.2 log units of each other in “polymerase ribozyme fitness (log ratio)” value: -0.63 for the first, -0.434 for the second.

Compared with U78C U81G, C76U U92G is lower in “polymerase ribozyme fitness (log ratio)” value: -3.03 for the first, -3.28 for the second.

Going from C73U C76A A103U G120C to A75C, the “polymerase ribozyme fitness (log ratio)” value rises from -5.45 to -0.585.

First: A75G
Second: A75U
The “polymerase ribozyme fitness (log ratio)” value of the first is higher: 0.101 for the first, -0.493 for the second.

U78C U92A and C73U G107A A108G G120A C124A are within 0.2 log units of each other in “polymerase ribozyme fitness (log ratio)” value: -3.1 for the first, -3.12 for the second.

C76A C115U and A75U A95C U116C U125C are within 0.2 log units of each other in “polymerase ribozyme fitness (log ratio)” value: -2.9 for the first, -3.04 for the second.

First: U78C C114A
Second: G77U G128C
The “polymerase ribozyme fitness (log ratio)” value of the first is higher: -1.63 for the first, -3.09 for the second.

Going from A74U C86U to A75U C104U U106A, the “polymerase ribozyme fitness (log ratio)” value rises from -0.818 to -0.439.

Going from G77U A84G C85G to C73U U81A U116G U125A, the “polymerase ribozyme fitness (log ratio)” value falls from -2.45 to -4.02.

A74U U130G and C79U A95C A118U are within 0.2 log units of each other in “polymerase ribozyme fitness (log ratio)” value: -0.154 for the first, -0.263 for the second.

Compared with A74U A95U, A74C G110C is lower in “polymerase ribozyme fitness (log ratio)” value: -0.222 for the first, -4.36 for the second.

Compared with A74C G110A, A74U U112A G113C A118C G135U is lower in “polymerase ribozyme fitness (log ratio)” value: -1.2 for the first, -3.34 for the second.

Compared with A74U C94U, C73A C101A is lower in “polymerase ribozyme fitness (log ratio)” value: -0.301 for the first, -1 for the second.

Compared with C73U A100U G110A, C79G C82G U92A A121G is lower in “polymerase ribozyme fitness (log ratio)” value: -1.9 for the first, -5.59 for the second.

Going from A74G C94U to C80U G93C, the “polymerase ribozyme fitness (log ratio)” value falls from 0.88 to -1.44.

Compared with C76U A90G C115A, A74G C98G is lower in “polymerase ribozyme fitness (log ratio)” value: -0.0334 for the first, -6.09 for the second.

First: C80G A119U
Second: C76G G93A C124G
The “polymerase ribozyme fitness (log ratio)” value of the first is lower: -2.85 for the first, 1.31 for the second.

Going from C73A G77A to C79A C85A A119U, the “polymerase ribozyme fitness (log ratio)” value falls from -0.332 to -5.64.

Going from C73A C104A A108G U112A A118G G122U to G77C G93A, the “polymerase ribozyme fitness (log ratio)” value rises from -5.56 to -0.532.

C73A G122A and C76U C88U are within 0.2 log units of each other in “polymerase ribozyme fitness (log ratio)” value: -0.64 for the first, -0.561 for the second.

Going from C79A A83U to C79U U109G, the “polymerase ribozyme fitness (log ratio)” value falls from -3.6 to -5.09.

Compared with C73U A103G, C80U G117C is higher in “polymerase ribozyme fitness (log ratio)” value: -4.17 for the first, -3.58 for the second.

Going from C73G A90G G113U A118C to C79A U81C G120U G135C, the “polymerase ribozyme fitness (log ratio)” value rises from -5.26 to -2.91.

Compared with U81G C88U, U81C C86U U116G is higher in “polymerase ribozyme fitness (log ratio)” value: -4.05 for the first, -3.1 for the second.

Compared with U78A A100C, C73A U78C A90C A91U U109G is lower in “polymerase ribozyme fitness (log ratio)” value: -1.08 for the first, -7.04 for the second.

Going from C80U G117A U133G to C73G G120C, the “polymerase ribozyme fitness (log ratio)” value rises from -1.17 to 0.461.

Going from C79U G113A C123U U129C to C73A C102A, the “polymerase ribozyme fitness (log ratio)” value rises from -3.48 to -2.07.

Compared with U78C C102G, C79G C89U A91C is higher in “polymerase ribozyme fitness (log ratio)” value: -5.35 for the first, -4.46 for the second.

C73U C102U U131C and U78G C86G U112A C124G G135U are within 0.2 log units of each other in “polymerase ribozyme fitness (log ratio)” value: -1.19 for the first, -1.2 for the second.

Going from U78C U112A A118U to C73G U87A G122A, the “polymerase ribozyme fitness (log ratio)” value falls from 1.17 to -4.5.

Going from C76A G110A to U78G C123U, the “polymerase ribozyme fitness (log ratio)” value rises from -1.79 to 0.876.

In the case of U81C A121G, the “polymerase ribozyme fitness (log ratio)” value is reported as 0.253.
